Data as given in patent US20210008108A1 (ETABLISSEMENT FRANCAIS DU SANG, published 2021).

Target: T1, recombinant fusion protein consisting of the extra cellular part of IL-1RAP and the Fc-part of human IgG1 … (human, UniProt Q9NPH3 21-367)
T1 construct: extracellular domain; also called IL-1RAP recombinant protein; recombinant IL-1RAP protein; not shown: Fc-part of human IgG1
T1 sequence (looked up): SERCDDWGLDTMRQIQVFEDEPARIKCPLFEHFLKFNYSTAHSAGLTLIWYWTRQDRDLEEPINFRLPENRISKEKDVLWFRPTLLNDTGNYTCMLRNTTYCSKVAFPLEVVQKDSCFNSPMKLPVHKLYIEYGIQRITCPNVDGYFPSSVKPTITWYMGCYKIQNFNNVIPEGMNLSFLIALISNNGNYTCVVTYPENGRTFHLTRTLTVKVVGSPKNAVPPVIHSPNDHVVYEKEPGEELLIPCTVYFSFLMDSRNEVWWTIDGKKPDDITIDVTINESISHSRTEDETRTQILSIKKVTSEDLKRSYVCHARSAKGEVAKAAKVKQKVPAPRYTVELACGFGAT
Test: ELISA, IL-1RAP protein captured by coated anti-human Fc, detected with anti-mouse Fc-HRP
Excerpt: Anti-human Fc antibody was coated on a bottom of a plastic ELISA plate.

- binding result: binds
B1: mouse anti-hIL-1RAP monoclonal antibody clone #E3C3 (antibody, V domains shown)
VH: QVQLQQPGAELMMPGASVKVSCEASGYTFTDSWMHWVKQRPGQGLEWIGAIDPSDSYTTYNQKFTGKATLSVDESSNTAYMQLSSLTSEDSAVYYCARYYSGSNYISPFPYWGQGTLVTVSA
VL: DIVMTQSHKFMSTSVGDRVTITCKASLDVSTAVAWYQQKPGQSPKLLIYSASYRYTGVPDRFTGSGSGTDFTFTISSVQAEDLAVYYCQQHYSPPFTFGSGTNLEIK
notes: Murine hybridoma antibody; It was Alexa Fluor 488 labelled in some flow cytometry; also called #A3C3; #E3C3 mAb
